Assay results reported in publication PMC11153131.

Target: recombinant LDLR protein, extracellular domain, immobilised on the QCM chip (human) (UniProt P01130)
Experiment: quartz crystal microbalance (QCM)

Substance | Kd [nM] | koff [s⁻¹] | kon [M⁻¹ s⁻¹]
GP38, a secreted CCHFV glycoprotein (from UniProt Q8JSZ3 248-519) (natural protein) | 180 | – | –
Human Fc-tagged CCHFV Gc (Fc fusion) | 3.3 | 5.9e-05 | 13000
unlabelled LDL from human plasma (complex) | 3 | 0.00112 | 255000
